Reference: article PMC8126837 (Proceedings of the National Academy of Sciences of the …, 2021)

B1: WNb 32 (VHH)
VHH: QVQLQESGGGLVQAGGSLGLSCAASGRPLNSYSMAWFRQAPGKEREFVASIGRSDGLSKYNDFVKDRFTLSRGNAKTTLLLQMNNLKVEDTAVYYCSAALWDGWATDINEYDYRGQGTQVTVSS
B2: WNb 31 (VHH)
VHH: QVQLQESGGGLVQAGDSLRLSCTASGRALNTYTVAWWRQAPGNEREFVASIIWSSGAAWYADAVKGRFTISRDNAKNTVDLQMTSLKPEETAIYFCAVGQWEGRDTWYTSYDYWGQGTQVTVSS
B3: WNb 61 (VHH)
VHH: QVQLQESGGGLVQPGGSLNISCASNGFTLDFYAIGWFRQAPGKEREGVSCISRSGSNINYAESLKGRATISRDNAKNTIYLQMSNLRTEDTAVYYCAATPSGVATAQGPCDLTRWYDNWGQGTQVTVSS
B4: WNb 5 (VHH)
VHH: QVQLQESGGGLVQAGGSLRLSCAASGRTFSRYAIGWFRQAPGKEREGVSCISPSGGSTNYADSVKGRFTISRDNAKNTVYLQMNSLKPEDTAVYYCAASTPSYHYCSGYVSEYDYWGQGTQVTVSS
B5: WNb 70 (VHH)
VHH: QVQLQESGGGLVQPGGSLNISCASNGFTLDFYAIGWFRQAPGKEREGVSCISSSGGSSKYSDSVKGRFTISRDNAKNTVYLQMNSLQPEDTAVYYCAAQMGSSEYCPIFIPGEGMDYWGKGTQVTVSS
B6: WNb 4 (VHH)
VHH: QVQLQESGGGLVQPGGSLRLSCAASGFTLDYYAIGWFRQAPGKEREGVSCISSSGGSTNYADSVKGRFTISRDNAKNTVYLQMNSLQPEDTAVYYCAAQMGSSRYCPIFTPGEGMDYWGKGTQVTVSS
B7: WNb 3 (VHH)
VHH: QVQLQESGGGLVQPGGSLRLSCAASGFTLDYYAIGWFRQAPGKEREGVSCISSSGGSTNYADSVKGRFTISRDNAKNTVYLQMNSLKPEDTAVYYCAAQMGSSRYCPIFIPGEGMDYWGKGTQVTVSS
B8: WNb 30 (VHH)
VHH: QVQLQESGGGLVQPGGSLRLSCVASGITLDYYAIGWFRQAPGKEREGVSCLSSSDGSTYYADSVKGRFTMSRDNVKNTVYLQMNSLKPEDTAVYYCATNPLTVVDGTFHLTCLDEYDYGGQGTQVTVSS
B9: WNb 59 (VHH)
VHH: QVQLQESGGGLVQPGGSLRLSCAASGGTLDYYAIGWFRQAPGKEREGVSCIMSSGGPTYFAGSVKGRFTISRDNAKNTVYLQMNSLKPEDTAVYYCAADPHGFDCSPSGGMDYWGKGTQVTVSS
B10: WNb 69 (VHH)
VHH: QVQLQESGGGLVQPGGSLRLSCAASGFTLDYYGIGWFRQAPGKEREGVSCISASGTSTKYVNSVKGRFTISRDNAKNTVYLQMNSLKPEDTAVYYCAAISGSYYYTSLHPVEYDSWGQGTQVTVSS
B11: WNb 46 (VHH)
VHH: QVQLQESGGGQVQPGGSLRLSCAASGFTLDYYGIGWFRQAPGQEREGVSSISTSGTSTNYANSVKGRFTISRDNAKNTVYLQMNSLKPEDTAVYYCAAISGSYYYTSLHPVEYDYWGQGTQVTVSS
B12: WNb 49 (VHH)
VHH: QVQLQESGGGLVQPGGSLRLSCAASGFTLDYYGIGWFRQAPGKEREGVSGISASGTSTNYADSVKGRFTVSRDNAKNTVYLQMNSLKPEDTAVYYCAAISASYYYTSLHPVEYDSWGQGTQVTVSS
B13: WNb 20 (VHH)
VHH: QVQLQESGGGLVQPGGSLRLSCAASGFTLEHYAIGWFRQAPGKEREGVSCISNSGGRTNYADSVKGRFTISRDNAKNTVYLQMNSLKPEDTAVYYCAADLGVVERLCPAHPGSYEYDYWGQGTQVTVSS

Target: SARS-CoV-2 receptor-binding domain (RBD), wild type (SARS-CoV-2, UniProt P0DTC2, DyLight 488 (NHS ester, about 1.9 dye/protein) in the FRET assay only)

Question: Does B1 bind?
Answer: Result: binds

Question: Does B2 bind?
Answer: Result: binds

Question: Does B3 bind?
Answer: Result: binds

Question: Does B4 bind?
Answer: Result: binds

Question: Does B5 bind?
Answer: Result: binds

Question: Does B6 bind?
Answer: Result: binds

Question: Does B7 bind?
Answer: Result: binds

Question: Does B8 bind?
Answer: Result: binds

Question: Does B9 bind?
Answer: Result: binds

Question: Does B10 bind?
Answer: Result: binds

Question: Does B11 bind?
Answer: Result: binds

Question: Does B12 bind?
Answer: Result: binds

Question: Does B13 bind?
Answer: Result: binds
